Stoichiometry N, Km and kcat data for two substances are collected here from article PMC4304843, “Human Mitochondrial Hsp70 (Mortalin): Shedding Light on ATPase Activity, Interaction with Adenosine Nucleotides, Solution Structure and Domain Organization” (PLoS ONE, 2015).

Data set [1] concerns the target Human mitochondrial Hsp70 (mortalin), recombinant (human) (UniProt P38646). The data set can be described thus: SEC; analytical SEC (Superdex 200 GL 10/30, TKP buffer pH 7.5) of mortalin directly after Ni2+ affinity chromatography. For orientation: SEC sorts molecules by how far they enter the pores of the column.
Data set [2] has as its system T1, Nc1ncnc2c1ncn2[C@@H]1O[C@H](COP(=O)(O)OP(=O)(O)OP(=O)(O)O)[C@@H](O)[C@H]1O.
T1 construct: monomeric SEC fraction, alkaline phosphatase treated
The experiment in a line: ATPase, EnzChek phosphate assay, Michaelis-Menten fit. The conditions noted are these: TKP buffer without phosphate pH 7.5, 2 mM Mg2+, 37°C, no co-chaperone. Type of data set: biochemical, Homo sapiens. The text has this: ATPase, EnzChek phosphate assay, Michaelis-Menten fit on human mortalin (mtHsp70, GRP75, HspA9, PBP74)

Chain of human mortalin (mtHsp70, GRP75, HspA9, PBP74) (Homo sapiens) (chain, as listed by the source): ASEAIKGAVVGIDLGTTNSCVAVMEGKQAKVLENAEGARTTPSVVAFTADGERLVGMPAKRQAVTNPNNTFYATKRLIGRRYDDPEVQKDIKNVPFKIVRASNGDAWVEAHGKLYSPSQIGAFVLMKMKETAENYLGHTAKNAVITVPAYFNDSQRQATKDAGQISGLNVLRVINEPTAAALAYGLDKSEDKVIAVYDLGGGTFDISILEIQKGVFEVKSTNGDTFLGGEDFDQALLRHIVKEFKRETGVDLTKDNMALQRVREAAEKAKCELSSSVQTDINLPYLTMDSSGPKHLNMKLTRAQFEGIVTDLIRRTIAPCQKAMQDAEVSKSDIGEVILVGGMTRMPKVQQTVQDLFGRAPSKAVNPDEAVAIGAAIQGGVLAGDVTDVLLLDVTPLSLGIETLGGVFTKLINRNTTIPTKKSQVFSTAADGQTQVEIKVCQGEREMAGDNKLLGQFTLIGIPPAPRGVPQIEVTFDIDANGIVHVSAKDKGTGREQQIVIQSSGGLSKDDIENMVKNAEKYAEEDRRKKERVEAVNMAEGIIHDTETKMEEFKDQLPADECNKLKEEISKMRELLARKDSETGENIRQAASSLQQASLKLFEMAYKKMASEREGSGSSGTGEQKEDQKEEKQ

For orientation: stoichiometry N means the number of molecules, sites or subunits per partner or assembly. As to “Human mitochondrial Hsp70 (mortalin), recombinant (from UniProt P38646 47-679) (natural protein)”, in data set [1], the stoichiometry N was found to be 2.

Broadly, the Km is the concentration of substrate that gives half-maximal velocity. The term kcat denotes the maximal rate divided by the concentration of active sites. Consider “human mortalin (mtHsp70, GRP75, HspA9, PBP74) (Homo sapiens)”, for which, in data set [2], the Km came out at 190 ± 20 µM and the kcat turned out to be 0.00252 ± 3.33e-05 s⁻¹.
